{"source": "patent US20240218374", "key": {"[1]": {"target": "Spike S2 ECD (SARS-CoV-2) (UniProt P0DTC2)", "experiment": "filter", "conditions": "Y=Tyr-dU, p=Nap-dC"}, "[2]": {"target": "Spike S1 (SARS-CoV-2) (UniProt P0DTC2)", "experiment": "filter"}, "[3]": {"target": "Spike RBD-mFc (ACE2 inhibition assay) (SARS-CoV-2) (UniProt P0DTC2)", "experiment": "inhibition", "conditions": "Y=Tyr-dU, p=Nap-dC; printed CCTTGGGAYApYAYGpGYppGAppGpYpGGApGGAGAAGG [Tyr-dU: 9,12,14,18,27; Nap-dC: 11,16,19,20,23,24,26,28,32]"}, "[4]": {"target": "Spike RBD (SARS-CoV-2) (UniProt P0DTC2)", "experiment": "filter", "conditions": "P=Nap-dU"}, "[5]": {"target": "Spike S1 & S2 ECD (SARS-CoV-2) (UniProt P0DTC2)", "experiment": "filter"}}}
{"sequence": "CCTTGCAGGCGGCACATGGCACTTCATATCGAGCGGAAGG [26876-3_4 (SL1114)]", "values": [{"measurement": "Kd", "setting": "[1]; printed CCTTGpAGGpGGpApAYGGpApYYpAYAYpGAGpGGAAGG [Nap-dC: 6,10,13,15,20,22,25,30,34, Tyr-dU: 17,23,24,27,29]", "result": 370, "unit": "pM"}]}
{"sequence": "CCTTGGGATACTATGCGTCCGACCGCTCGGACGGAGAAGG [26874-29_4 (SL1111)]", "values": [{"measurement": "Kd", "setting": "[2]; Y=Tyr-dU, p=Nap-dC, printed CCTTGGGAYApYAYGpGYppGAppGpYpGGApGGAGAAGG [Tyr-dU: 9,12,14,18,27, Nap-dC: 11,16,19,20,23,24,26,28,32]", "result": 3200, "unit": "pM"}, {"measurement": "EC50", "setting": "[3]", "result": 4200, "unit": "pM"}]}
{"sequence": "CCTTGTGCAACGCACCTTATTCGGCTTGAATGTGAGAAGG [26876-13_4 (SL1115)]", "values": [{"measurement": "Kd", "setting": "[1]; printed CCTTGYGpAApGpAppYYAYYpGGpYYGAAYGYGAGAAGG [Nap-dC: 8,11,13,15,16,22,25, Tyr-dU: 6,17,18,20,21,26,27,31,33]", "result": 190, "unit": "pM"}]}
{"sequence": "GCATCATCTCCCAGCTAATGAGTGTCTGAATTGGACTGGTCCTCTGGGGA [26860-75_3 (SL1107)]", "values": [{"measurement": "Kd", "setting": "[4]; printed GCATCAPCPCCCAGCPAAPGAGPGPCPGAAPPGGACPGGPCCPCPGGGGA [7,9,16,19,23,25,27,31,32,37,40,43,45]", "result": 230, "unit": "pM"}, {"measurement": "Kd", "setting": "[2]; P=Nap-dU, printed GCATCAPCPCCCAGCPAAPGAGPGPCPGAAPPGGACPGGPCCPCPGGGGA [7,9,16,19,23,25,27,31,32,37,40,43,45]", "result": 2800, "unit": "pM"}]}
{"sequence": "GCATCGGAATGAATGTCTGCCTTGCACTGGTGCGGTCCGATTGTGAGGGA [26860-16_3 (SL1108)]", "values": [{"measurement": "Kd", "setting": "[4]; printed GCATCGGAAPGAAPGPCPGCCPPGCACPGGPGCGGPCCGAPPGPGAGGGA [Nap-dU at 10,14,16,18,22,23,28,31,36,41,42,44]", "result": 61, "unit": "pM"}, {"measurement": "Kd", "setting": "[2]; P=Nap-dU, printed GCATCGGAAPGAAPGPCPGCCPPGCACPGGPGCGGPCCGAPPGPGAGGGA [Nap-dU at 10,14,16,18,22,23,28,31,36,41,42,44]", "result": 480, "unit": "pM"}]}
{"sequence": "GGGANANNANGNGNNNGANNGNNNGGANG [26874-29_112]", "values": [{"measurement": "Kd", "setting": "[5]; MOEdU at 14, other dU Tyr-dU, dC Nap-dC, SB18T0.01, 37 C", "result": 560, "unit": "pM"}]}
{"sequence": "GGGANANNANGNGNNNGANNGNNNGGANG [26874-29_113]", "values": [{"measurement": "Kd", "setting": "[5]; 2NapdU at 14, other dU Tyr-dU, dC Nap-dC, SB18T0.01, 37 C", "result": 320, "unit": "pM"}]}
{"sequence": "GGGANANNANGNGNNNGANNGNNNGGANG [26874-29_114]", "values": [{"measurement": "Kd", "setting": "[5]; MOEdU at 23, other dU Tyr-dU, dC Nap-dC, SB18T0.01, 37 C", "result": 810, "unit": "pM"}]}
{"sequence": "GGGANANNANGNGNNNGANNGNNNGGANG [26874-29_115]", "values": [{"measurement": "Kd", "setting": "[5]; 2NapdU at 23, other dU Tyr-dU, dC Nap-dC, SB18T0.01, 37 C", "result": 460, "unit": "pM"}]}
{"sequence": "GGGANANNANGNGNNNGANNGNNNGGANG [26874-29_116]", "values": [{"measurement": "Kd", "setting": "[5]; BTdU at 5, other dU Tyr-dU, dC Nap-dC, low plateau", "result": 530, "unit": "pM"}]}
{"sequence": "GGGANANNANGNGNNNGANNGNNNGGANG [26874-29_117]", "values": [{"measurement": "Kd", "setting": "[5]; POPdU at 5, other dU Tyr-dU, dC Nap-dC, SB18T0.01, 37 C", "result": 420, "unit": "pM"}]}
{"sequence": "GGGANANNANGNGNNNGANNGNNNGGANG [26874-29_118]", "values": [{"measurement": "Kd", "setting": "[5]; BTdU at 8, other dU Tyr-dU, dC Nap-dC, SB18T0.01, 37 C", "result": 390, "unit": "pM"}]}
{"sequence": "GGGANANNANGNGNNNGANNGNNNGGANG [26874-29_119]", "values": [{"measurement": "Kd", "setting": "[5]; Y=Tyr-dU, p=Nap-dC, position 8 POP-dU, value curated as assigned, Kd/Kd_20 1656", "result": 500000, "unit": "pM"}]}
{"sequence": "GGGANANNANGNGNNNGANNGNNNGGANG [26874-29_120]", "values": [{"measurement": "Kd", "setting": "[5]; BTdU at 10, other dU Tyr-dU, dC Nap-dC, SB18T0.01, 37 C", "result": 240, "unit": "pM"}]}
{"sequence": "GGGANANNANGNGNNNGANNGNNNGGANG [26874-29_121]", "values": [{"measurement": "Kd", "setting": "[5]; POPdU at 10, other dU Tyr-dU, dC Nap-dC, low plateau", "result": 420, "unit": "pM"}]}
{"sequence": "GGGANANNANGNGNNNGANNGNNNGGANG [26874-29_122]", "values": [{"measurement": "Kd", "setting": "[5]; BTdU at 14, other dU Tyr-dU, dC Nap-dC, SB18T0.01, 37 C", "result": 160, "unit": "pM"}]}
{"sequence": "GGGANANNANGNGNNNGANNGNNNGGANG [26874-29_123]", "values": [{"measurement": "Kd", "setting": "[5]; Y=Tyr-dU, p=Nap-dC, position 14 POP-dU, value curated as assigned, Kd/Kd_20 1656", "result": 500000, "unit": "pM"}]}
{"sequence": "GGGANANNANGNGNNNGANNGNNNGGANG [26874-29_124]", "values": [{"measurement": "Kd", "setting": "[5]; BTdU at 23, other dU Tyr-dU, dC Nap-dC, SB18T0.01, 37 C", "result": 640, "unit": "pM"}]}
{"sequence": "GGGANANNANGNGNNNGANNGNNNGGANG [26874-29_125]", "values": [{"measurement": "Kd", "setting": "[5]; POPdU at 23, other dU Tyr-dU, dC Nap-dC, low plateau", "result": 370, "unit": "pM"}]}
{"sequence": "GGGANANNANGNGNNNGANNGNNNGGANG [26874-29_126]", "values": [{"measurement": "Kd", "setting": "[5]; 2NEdU at 5, other dU Tyr-dU, dC Nap-dC, low plateau", "result": 650, "unit": "pM"}]}
{"sequence": "GGGANANNANGNGNNNGANNGNNNGGANG [26874-29_128]", "values": [{"measurement": "Kd", "setting": "[5]; Y=Tyr-dU, p=Nap-dC, position 8 2NE-dU, value curated as assigned, Kd/Kd_20 1656", "result": 500000, "unit": "pM"}]}
{"sequence": "GGGANANNANGNGNNNGANNGNNNGGANG [26874-29_130]", "values": [{"measurement": "Kd", "setting": "[5]; 2NEdU at 10, other dU Tyr-dU, dC Nap-dC, SB18T0.01, 37 C", "result": 280, "unit": "pM"}]}
{"sequence": "GGGANANNANGNGNNNGANNGNNNGGANG [26874-29_132]", "values": [{"measurement": "Kd", "setting": "[5]; 2NEdU at 14, other dU Tyr-dU, dC Nap-dC, SB18T0.01, 37 C", "result": 270, "unit": "pM"}]}
{"sequence": "GGGANANNANGNGNNNGANNGNNNGGANG [26874-29_134]", "values": [{"measurement": "Kd", "setting": "[5]; Y=Tyr-dU, p=Nap-dC, position 23 2NE-dU, very low plateau, faint spots", "result": 120, "unit": "pM"}]}
{"sequence": "GGGANANNANGNGNNNGANNGNNNGGANG [26874-29_136]", "values": [{"measurement": "Kd", "setting": "[5]; iBudU at 5, other dU Tyr-dU, dC Nap-dC, SB18T0.01, 37 C", "result": 570, "unit": "pM"}]}
{"sequence": "GGGANANNANGNGNNNGANNGNNNGGANG [26874-29_138]", "values": [{"measurement": "Kd", "setting": "[5]; iBudU at 8, other dU Tyr-dU, dC Nap-dC, SB18T0.01, 37 C", "result": 590, "unit": "pM"}]}
